{"source": "patent US20050271676A1", "about": "“Inducing cellular immune responses to human immunodeficiency virus-1 using peptide and nucleic acid compositions” (Epimmune Inc., priority 1993, published 2005)", "key": {"HLA-DRB1*0401 (DR4w4)": {"target": "T1, HLA-DRB1*0401 (DR4w4) (Homo sapiens, UniProt P01903+P01911, A100K/A169T/F76Y/I96L/K127E/L162R/M171V/N62H/P40V/Q125Y/R42H/S133A/S149N/S66Y/V115G/V209L/W38E)", "T1 construct": "endogenous in cells; host or cells: Preiss", "T1 sequence (P01903 26-254 partner, other chains not shown)": "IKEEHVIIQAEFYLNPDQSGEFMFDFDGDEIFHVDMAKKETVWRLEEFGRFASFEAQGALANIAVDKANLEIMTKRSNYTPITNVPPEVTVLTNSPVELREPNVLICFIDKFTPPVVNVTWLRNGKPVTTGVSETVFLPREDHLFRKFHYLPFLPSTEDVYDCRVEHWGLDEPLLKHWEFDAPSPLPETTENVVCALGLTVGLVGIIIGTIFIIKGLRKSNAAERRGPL", "test": "purified HLA class II binding assay, DRB1*0401 (DR4w4)", "conditions": "for DR4w4 binding: HIV DR super motif peptides, unit not given"}, "HLA-DRB5*0101 (DR2w2β2)": {"target": "T2, HLA-DRB5*0101 (DR2w2β2) (Homo sapiens, UniProt P01903+Q30154)", "T2 construct": "expressed in transfected cells", "test": "biochemical", "assay_type": "binding"}, "HLA-DRB1*1101 (DR5w11)": {"target": "T3, HLA-DRB1*1101 (DR5w11) (Homo sapiens, UniProt P01903+P01911, A100R/A169T/A87E/I96F/K41T/L162R/M171V/P40S/Q125H/Q178H/Q39Y/Q99D/R42S/S66Y/T262R/V115G/W38E)", "T3 construct": "endogenous in cells", "T3 sequence (P01903 26-254, other chains not shown)": "as the sequence (P01903 26-254 partner, other chains not shown) above", "test": "biochemical", "assay_type": "binding"}, "HLA-DRB1*0301 (DR3)": {"target": "T4, HLA-DRB1*0301 (DR3) (Homo sapiens, UniProt P01903+P01911, A100K/A102G/A103R/A169T/F55Y/I96L/K41T/L162R/M171V/P40S/Q125H/Q178H/Q39Y/R42S/S66N/T106N/T262R/W38E/Y61H)", "T4 construct": "endogenous in cells; host or cells: MAT", "T4 sequence (P01903 26-254 partner, other chains not shown)": "as above", "test": "purified HLA class II binding assay, DRB1*0301 (DR3), pH 4.5", "conditions": "Table XXb, HIV DR 3a motif peptides"}, "HLA-A*2402": {"target": "HLA-A*2402 (Homo sapiens, UniProt P04439, D101N/D140Y/D185E/E176V/E190D/F33S/G103R/G107R/I119L/I121M/I306V/K335N/L105A/L180Q/L300P/N151K/N90K/Q86E/Q94H/R106L/R138H/R89G/T104I/T345S/V100E/W191G/Y123F)", "test": "purified HLA class I binding assay, A*2402"}, "HLA-A*3101": {"target": "HLA-A*3101 (Homo sapiens, UniProt P04439, A270S/D185E/E176V/E277Q/F33T/G231S/G80R/H175R/I121M/I218V/I322F/K168Q/L300P/L318F/M331R/P217A/Q94H/R138Q/T323A/T345S/T97I/V358M)", "test": "purified HLA class I binding assay, A*3101"}, "HLA-A*3301": {"target": "HLA-A*3301 (Homo sapiens, UniProt P04439, A270S/D185E/E176V/E277Q/E87N/F33T/G231S/H175R/I121M/I218V/I322F/K168Q/K210R/L300P/L318F/M331R/P217A/Q86R/Q94H/R138Q/T323A/T345S/T97I/V358M/Y195H)", "test": "purified HLA class I binding assay, A*3301"}, "HLA-A*6801": {"target": "HLA-A*6801 (Homo sapiens, UniProt P04439, A269V/D185E/E176V/E277Q/E87N/F33Y/G231S/I121M/I166T/I218V/L180W/L300P/L318F/N151K/P208A/P217A/Q86R/R169H/T345S)", "test": "purified HLA class I binding assay, A*6801"}, "HLA-A*1101": {"target": "HLA-A*1101 (Homo sapiens, UniProt P04439, A114D/D185E/E176A/F33Y/L180Q/S129P/T187R)", "test": "purified HLA class I binding assay, A*1101"}, "HLA-A*0301": {"target": "T5, HLA-A*0301 (Homo sapiens, UniProt P04439)", "T5 construct": "endogenous in cells; host or cells: GM3107", "test": "purified HLA class I binding assay, A*0301", "conditions": "Table IX, HIV A03 super motif peptides; binding value, unit not given"}, "HLA-A*0201": {"target": "HLA-A*0201 (Homo sapiens, UniProt P04439, D140Y/D185E/D98H/E176V/E277Q/G131W/G231S/I119V/I121R/I166T/I218V/L300P/L318F/N151K/N90K/P208A/P217A/Q86G/Q94H/R138H/R169H/T345S)", "test": "purified HLA class I binding assay, A*0201", "conditions": "Table VIII, unit not given"}, "HLA-DRB1*0701 (DR7)": {"target": "T6, HLA-DRB1*0701 (DR7) (Homo sapiens, UniProt P01903+P01911, A100R/A102G/A103Q/D57E/D86V/E43K/F76Y/K127E/L162R/M171V/P40G/Q125H/Q99D/R33Q/R42Y/R54Q/S133A/S66F/T210M/V115G/Y107V/Y59L/Y89S)", "T6 construct": "endogenous in cells; host or cells: Pitout", "test": "biochemical", "assay_type": "binding"}, "HLA-A*0202": {"target": "HLA-A*0202 (Homo sapiens, UniProt P04439, D140Y/D185E/D98H/E176V/E277Q/G131W/G231S/I119L/I121R/I166T/I218V/L180W/L300P/L318F/N151K/N90K/P208A/P217A/Q67R/Q86G/Q94H/R138H/R169H/T345S)", "test": "purified HLA class I binding assay, A*0202", "conditions": "Table VIII, HIV A02 Super Motif Peptides with Binding Information; unit not given"}, "HLA-A*6802": {"target": "HLA-A*6802 (Homo sapiens, UniProt P04439, A269V/D140Y/D185E/E176V/E277Q/E87N/F33Y/G231S/I121R/I166T/I218V/L180W/L300P/L318F/N151K/P208A/P217A/Q86R/R138H/R169H/S129P/T345S/V36M)", "test": "purified HLA class I binding assay, A*6802", "conditions": "Table VIII, HIV A02 Super Motif Peptides with Binding Information; unit not given"}, "HLA-A*0206": {"target": "HLA-A*0206 (Homo sapiens, UniProt P04439, D140Y/D185E/D98H/E176V/E277Q/F33Y/G131W/G231S/I119V/I121R/I166T/I218V/L300P/L318F/N151K/N90K/P208A/P217A/Q86G/Q94H/R138H/R169H/T345S)", "test": "purified HLA class I binding assay, A*0206", "conditions": "Table VIII, HIV A02 Super Motif Peptides with Binding Information; unit not given"}, "HLA-A*0203": {"target": "HLA-A*0203 (Homo sapiens, UniProt P04439, A173T/D140Y/D185E/D98H/E277Q/G131W/G231S/I119V/I121R/I166T/I218V/L180W/L300P/L318F/N151K/N90K/P208A/P217A/Q86G/Q94H/R138H/R169H/T345S)", "test": "purified HLA class I binding assay, A*0203", "conditions": "Table VIII, HIV A02 Super Motif Peptides with Binding Information; unit not given"}, "[1]": {"conditions": "HIV A24 supermotif peptides, Table X, A*2401, unit not given"}, "[2]": {"conditions": "HIV A24 motif peptides, purified HLA-A24 molecule, unit not given"}, "[3]": {"conditions": "Table IX, HIV A03 super motif peptides, binding value, unit not given"}, "[4]": {"conditions": "HIV A24 motif peptides, binding value for purified HLA-A24 molecule, A*2401, unit not given"}}, "note": "No end group written: not given here.", "data": [{"sequence": "PPVVAKEIVASCDKC", "values": [{"measurement": "DR4w4 binding information", "setting": "HLA-DRB1*0401 (DR4w4); Table XXb, HIV DR 3a motif peptides", "value": 0.0085}, {"measurement": "DR2w2β2 binding information", "setting": "HLA-DRB5*0101 (DR2w2β2)", "value": "−0.0021"}, {"measurement": "DR5w11 binding information", "setting": "HLA-DRB1*1101 (DR5w11)", "value": 0.0006}, {"measurement": "DR3 binding information", "setting": "HLA-DRB1*0301 (DR3)", "value": "−0.0130"}]}, {"sequence": "PYNEWTLEL [Peptide 25.0128]", "values": [{"measurement": "IC50", "setting": "HLA-A*2402", "value": 86, "unit": "nM"}]}, {"sequence": "IWQLDCTIIL", "values": [{"measurement": "A*2401 (binding information)", "setting": "HLA-A*2402; [1]", "value": 0.0095}]}, {"sequence": "KIQNFRVYYR [1211.32]", "values": [{"measurement": "IC50", "setting": "HLA-A*3101", "value": 2.7, "unit": "nM"}, {"measurement": "IC50", "setting": "HLA-A*3301", "value": 341, "unit": "nM"}]}, {"sequence": "QMAVFIIINF", "values": [{"measurement": "A*2401 (binding information)", "setting": "HLA-A*2402; [2]", "value": 0.0190}, {"measurement": "A*2401 (binding information)", "setting": "HLA-A*2402; [1]", "value": 0.0190}]}, {"sequence": "KMIGGIGGPI", "values": [{"measurement": "A*2401 (binding information)", "setting": "HLA-A*2402; [2]", "value": 0.0001}]}, {"sequence": "TLFCASDAK [1273.06]", "values": [{"measurement": "IC50", "setting": "HLA-A*3101", "value": 10600, "unit": "nM"}, {"measurement": "IC50", "setting": "HLA-A*6801", "value": 191, "unit": "nM"}]}, {"sequence": "WMGYELIIPDK", "values": [{"measurement": "A*3101 binding information", "setting": "HLA-A*3101; [3]", "value": 0.0009}, {"measurement": "A*6801 binding information", "setting": "HLA-A*6801; [3]", "value": 0.0003}, {"measurement": "A*1101 (binding information)", "setting": "HLA-A*1101; [3]", "value": 0.0004}, {"measurement": "A*1101 (binding information)", "setting": "HLA-A*1101; Table XVII, HIV A11 motif peptides, binding value A*1101, unit not given", "value": 0.0004}, {"measurement": "A*0301 binding information", "setting": "HLA-A*0301", "value": 0.0005}]}, {"sequence": "NMVEQMIIEDI", "values": [{"measurement": "A*0201 (binding information)", "setting": "HLA-A*0201; HIV A02 super motif peptides", "value": 0.0001}, {"measurement": "A*2401 (binding information)", "setting": "HLA-A*2402; HIV A24 supermotif peptides, purified HLA molecule, no unit printed in Table X", "value": 0.0004}]}, {"sequence": "VTVYYGVPVWKEATI", "values": [{"measurement": "DR4w4 binding", "setting": "HLA-DRB1*0401 (DR4w4)", "value": 0.0071}, {"measurement": "DR2w2β2 binding", "setting": "HLA-DRB5*0101 (DR2w2β2)", "value": 0.0270}, {"measurement": "DR7 binding", "setting": "HLA-DRB1*0701 (DR7)", "value": 0.0160}, {"measurement": "DR5w11 binding", "setting": "HLA-DRB1*1101 (DR5w11)", "value": 0.0021}]}, {"sequence": "LIFGWCFKLV", "values": [{"measurement": "A*0201 (binding information)", "setting": "HLA-A*0201; HIV A02 Super Motif Peptides with Binding Information", "value": 0.0170}, {"measurement": "A*0202 binding information", "setting": "HLA-A*0202", "value": 0.0880}, {"measurement": "A*6802 binding information", "setting": "HLA-A*6802", "value": 6.5000}, {"measurement": "A*0206 binding information", "setting": "HLA-A*0206", "value": 0.0640}, {"measurement": "A*0203 binding information", "setting": "HLA-A*0203", "value": 0.0540}]}, {"sequence": "IYQEPIKNL", "values": [{"measurement": "A*2401 (binding information)", "setting": "HLA-A*2402; [1]", "value": 0.0520}]}, {"sequence": "NNLLRAIEAQQIILLQ", "values": [{"measurement": "DR4w4 binding", "setting": "HLA-DRB1*0401 (DR4w4)", "value": 0.0150}, {"measurement": "DR7 binding", "setting": "HLA-DRB1*0701 (DR7)", "value": 0.0150}]}, {"sequence": "PYNLWILEL", "values": [{"measurement": "A*2401 (binding information)", "setting": "HLA-A*2402; HIV A24 supermotif peptides, A*2401, unit not given, so probably a relative binding value", "value": 0.1400}]}, {"sequence": "VWKEATITLF", "values": [{"measurement": "A*2401 (binding information)", "setting": "HLA-A*2402; [4]", "value": 0.2700}]}, {"sequence": "RFAVPGLL", "values": [{"measurement": "A*2401 (binding information)", "setting": "HLA-A*2402; [4]", "value": 0.0100}]}]}
